We go through 4 molecules from patent publication US20260216326A1 (PROMETHEUS BIOSCIENCES, published 2026).

The target of assay [1] is T1, recombinant TL1A antigen (UniProt O95150 72-251, limits assumed).
T1 sequence (looked up): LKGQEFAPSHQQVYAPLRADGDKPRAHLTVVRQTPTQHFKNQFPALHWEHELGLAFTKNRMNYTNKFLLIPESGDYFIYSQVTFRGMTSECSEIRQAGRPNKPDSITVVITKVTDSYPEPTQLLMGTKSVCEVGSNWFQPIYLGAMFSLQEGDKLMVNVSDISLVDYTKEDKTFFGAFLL
As to the kind of experiment: ELISA titration against recombinant TL1A antigen. On the technique in general: In an ELISA, binding on a coated surface is turned into a signal by an enzyme label.

Assay [2] has as its target T2, DR3 (Death Receptor 3) natively expressed on human TF-1 cells (human, UniProt Q93038 25-417).
T2 construct: whole, on cells; also called TNFRSF25
T2 sequence (looked up): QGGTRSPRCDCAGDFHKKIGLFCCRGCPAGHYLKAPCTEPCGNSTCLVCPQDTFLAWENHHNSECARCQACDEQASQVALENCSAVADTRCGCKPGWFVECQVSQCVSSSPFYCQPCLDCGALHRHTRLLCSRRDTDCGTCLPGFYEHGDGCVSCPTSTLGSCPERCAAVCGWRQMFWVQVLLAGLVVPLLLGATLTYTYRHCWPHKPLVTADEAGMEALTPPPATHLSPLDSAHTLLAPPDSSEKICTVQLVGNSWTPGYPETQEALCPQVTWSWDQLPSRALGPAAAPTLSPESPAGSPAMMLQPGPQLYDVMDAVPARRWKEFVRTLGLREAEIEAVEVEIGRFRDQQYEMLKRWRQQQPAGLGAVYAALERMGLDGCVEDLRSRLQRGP
In words: TF-1 cell caspase activation assay. From the text: TF-1 cells are human erythroleukemic cells that natively express DR3, the functional receptor for TL1A.

Assay [3] has as its target T3, TL1A in human blood (human, UniProt O95150 72-251, limits assumed).
T3 sequence (looked up): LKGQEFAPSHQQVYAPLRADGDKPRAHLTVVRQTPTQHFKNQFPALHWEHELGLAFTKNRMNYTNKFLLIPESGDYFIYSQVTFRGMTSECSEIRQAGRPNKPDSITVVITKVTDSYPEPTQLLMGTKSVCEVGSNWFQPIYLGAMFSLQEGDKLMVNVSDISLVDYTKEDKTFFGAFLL
In words: cell-based or functional assay.

In assay [4] the target is T3, TL1A in human blood. In words: cell-based or functional assay. The source holds these as a separate data set.
Assay [5] deals with T4, human TL1A (human, UniProt O95150 72-251, limits assumed).
T4 construct: also called tumor necrosis factor-like cytokine 1A; TNFSF15
T4 sequence (looked up): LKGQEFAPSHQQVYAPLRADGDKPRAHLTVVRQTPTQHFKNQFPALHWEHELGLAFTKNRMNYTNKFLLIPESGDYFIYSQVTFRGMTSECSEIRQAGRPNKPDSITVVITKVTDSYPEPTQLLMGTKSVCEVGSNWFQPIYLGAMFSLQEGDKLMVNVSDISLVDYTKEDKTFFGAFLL
As to the kind of experiment: ELISA titration on plate-coated human TL1A, unpurified culture supernatant.

B1: anti-TL1A antibody with heavy chain SEQ ID NO: 380 (IgG4, S228P, F234A, L235A; Fc SEQ ID NO: 367) and light chain SEQ ID NO: 381 (antibody)
heavy: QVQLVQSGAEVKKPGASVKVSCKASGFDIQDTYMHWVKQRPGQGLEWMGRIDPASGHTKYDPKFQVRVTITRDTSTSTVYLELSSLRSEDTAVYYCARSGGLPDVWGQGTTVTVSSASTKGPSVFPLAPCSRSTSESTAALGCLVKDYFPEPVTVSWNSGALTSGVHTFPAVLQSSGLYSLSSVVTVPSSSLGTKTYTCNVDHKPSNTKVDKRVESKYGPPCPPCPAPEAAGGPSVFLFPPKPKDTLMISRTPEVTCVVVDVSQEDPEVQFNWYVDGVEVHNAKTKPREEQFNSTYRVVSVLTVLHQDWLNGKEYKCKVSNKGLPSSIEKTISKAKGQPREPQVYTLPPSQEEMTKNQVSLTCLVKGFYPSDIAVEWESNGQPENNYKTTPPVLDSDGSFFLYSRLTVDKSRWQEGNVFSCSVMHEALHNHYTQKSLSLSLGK
light: EIVLTQSPGTLSLSPGERATLSCRASSSVSYMYWYQQKPGQAPRPLIYATSNLASGIPDRFSGSGSGTDFTLTISRLEPEDFAVYYCQQWEGNPRTFGGGTKLEIKRTVAAPSVFIFPPSDEQLKSGTASVVCLLNNFYPREAKVQWKVDNALQSGNSQESVTEQDSKDSTYSLSSTLTLSKADYEKHKVYACEVTHQGLSSPVTKSFNRGEC
Take B1: the EC50 in assay [1] came to 0.252 nM.

B2: recombinant human TL1A protein (tumor necrosis factor-like cytokine 1A) (ligand, UniProt O95150 72-251, looked up)
chain: LKGQEFAPSHQQVYAPLRADGDKPRAHLTVVRQTPTQHFKNQFPALHWEHELGLAFTKNRMNYTNKFLLIPESGDYFIYSQVTFRGMTSECSEIRQAGRPNKPDSITVVITKVTDSYPEPTQLLMGTKSVCEVGSNWFQPIYLGAMFSLQEGDKLMVNVSDISLVDYTKEDKTFFGAFLL
notes: Recombinant protein used in ELISA, SPR and the TF-1 caspase assay; also called TNFSF15; soluble TL1A
As to B2, the binding result in assay [2] was “binds”.

B3: A212 (antibody, IgG1, V domains shown)
VH: QVQLVQSGAEVKKPGASVKVSCKASGFDIQDTYMHWVRQRPGQGLEWIGRIDPASGHTKYDPKFQVRATITTDTSTSTAYLELSSLRSEDTAVYYCARSGGLPDVWGQGTTVTVSS
VL: EIVLTQSPGTLSLSPGERATLSCRASSSVSYMYWYQQKPGQAPRPLIYATSNLASGIPDRFSGSGSGTDFTLTISRLEPEDFAVYYCQQWEGNPRTFGGGTKLEIK
For B3, in assay [3], the “% Inhibition at 1 nM Ig; interferon gamma release in human blood” value is 46.8% and the “% Inhibition at 10 nM Ig; interferon gamma release in human blood” value came out at 71.2%. For the same molecule, the “IC50 values, Mean; inhibition of interferon gamma release from multiple human donors” value in assay [4] turned out to be 51.3. Also, in assay [5], binding was characterised by a dissociation constant (Kd) of 0.05 nM.

B4: A213 (antibody, IgG1, V domains shown)
VH: QVQLVQSGAEVKKPGASVKVSCKASGFDIQDTYMHWVRQRPGQGLEWMGRIDPASGHTKYDPKFQVRVTITTDTSTSTVYMELSSLRSEDTAVYYCARSGGLPDVWGQGTTVTVSS
VL: EIVLTQSPGTLSLSPGERATLSCRASSSVSYMYWYQQKPGQAPRPLIYATSNLASGIPDRFSGSGSGTDFTLTISRLEPEDFAVYYCQQWEGNPRTFGGGTKLEIK
Consider B4, for which, in assay [3], the “% Inhibition at 1 nM Ig; interferon gamma release in human blood” value stood at 48.6% and the “% Inhibition at 10 nM Ig; interferon gamma release in human blood” value was 69.8%. Moreover, the “IC50 values, Mean; inhibition of interferon gamma release from multiple human donors” value in assay [4] came to 46.8. The dissociation constant (Kd) in assay [5] is 0.049 nM.

The term EC50 denotes the concentration needed to bring the measured effect to its halfway point. As usually defined, the % Inhibition is the share of the control response that was lost under treatment. Lower therefore signals a response near the control. One may read the Kd as the constant that tells how readily two partners part at equilibrium. Low values mean a tighter complex, high ones a looser complex.
